The text below walks through data of paper PMC11672753 (2024).

B1: S15-FX (Fc fusion)
chain 1: QVQLLESGGGLVQPGGSLRLSCAASGFTFSSYAMSWVRQAPGKGLEWASAISGSGGSTYYADSVEGRFTISRDNSKNTLYLQMNSLRAEDTAVYYCAKDTGYCGDDCYIKLIRGGPDYWGQGTLVTVSS
chain 2: DIVMTQSPLSLPVTLGQPASISCRSSQSLVYSDGNTFLNWFQQRPGQSPRRLIYQVSNRDSGVPDRFSGSGSGTDFTLKISRVEAEDVGVYYCMQGTHWPRTFGQGTKLEIK
modifications: N-linked glycan at Asn297 devoid of core α-1,3-fucose and β-1,2-xylose; predominantly complex GnGn (52%–54%) and M5-M9 high mannose type (22%–24%); ~15% unglycosylated sites
B2: S15-YTE (Fc fusion)
chain 1: QVQLLESGGGLVQPGGSLRLSCAASGFTFSSYAMSWVRQAPGKGLEWASAISGSGGSTYYADSVEGRFTISRDNSKNTLYLQMNSLRAEDTAVYYCAKDTGYCGDDCYIKLIRGGPDYWGQGTLVTVSS
chain 2: DIVMTQSPLSLPVTLGQPASISCRSSQSLVYSDGNTFLNWFQQRPGQSPRRLIYQVSNRDSGVPDRFSGSGSGTDFTLKISRVEAEDVGVYYCMQGTHWPRTFGQGTKLEIK
modifications: N-linked glycan at Asn297, absent in a larger percentage (>10%) of antibodies
B3: S15 (plant-produced COVA2-15, single-chain (sc)Fv-Fc format) (Fc fusion)
chain 1: QVQLLESGGGLVQPGGSLRLSCAASGFTFSSYAMSWVRQAPGKGLEWASAISGSGGSTYYADSVEGRFTISRDNSKNTLYLQMNSLRAEDTAVYYCAKDTGYCGDDCYIKLIRGGPDYWGQGTLVTVSS
chain 2: DIVMTQSPLSLPVTLGQPASISCRSSQSLVYSDGNTFLNWFQQRPGQSPRRLIYQVSNRDSGVPDRFSGSGSGTDFTLKISRVEAEDVGVYYCMQGTHWPRTFGQGTKLEIK
modifications: N-linked glycan at Asn297, major glycoforms complex type with α-1,3 fucose and β-1,2-xylose (GnGnXF)
B4: S15-HDEL (Fc fusion)
chain 1: QVQLLESGGGLVQPGGSLRLSCAASGFTFSSYAMSWVRQAPGKGLEWASAISGSGGSTYYADSVEGRFTISRDNSKNTLYLQMNSLRAEDTAVYYCAKDTGYCGDDCYIKLIRGGPDYWGQGTLVTVSS
chain 2: DIVMTQSPLSLPVTLGQPASISCRSSQSLVYSDGNTFLNWFQQRPGQSPRRLIYQVSNRDSGVPDRFSGSGSGTDFTLKISRVEAEDVGVYYCMQGTHWPRTFGQGTKLEIK
modifications: N-linked glycan at Asn297: 88%–92% high-mannose-type N-glycans, less than 2% with α-1,3-fucose and β-1,2-xylose

The target of this test is neonatal Fc receptor FcRn (FcRn-SmBiT) (UniProt P55899 24-297). Put plainly: competition with IgG-LgBiT tracer (Lumit FcRn assay).
Sequence of neonatal Fc receptor FcRn (FcRn-SmBiT) (P55899 24-297, chain 1 of 2): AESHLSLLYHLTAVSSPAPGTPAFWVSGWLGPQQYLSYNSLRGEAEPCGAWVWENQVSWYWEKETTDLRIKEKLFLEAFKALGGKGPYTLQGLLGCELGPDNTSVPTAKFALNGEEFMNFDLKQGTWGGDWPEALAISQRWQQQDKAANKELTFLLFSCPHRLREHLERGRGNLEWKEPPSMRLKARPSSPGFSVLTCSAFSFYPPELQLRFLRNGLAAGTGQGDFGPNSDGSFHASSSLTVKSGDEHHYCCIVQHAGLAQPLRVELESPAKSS
Sequence of neonatal Fc receptor FcRn (FcRn-SmBiT) (chain, as listed by the source, chain 2 of 2): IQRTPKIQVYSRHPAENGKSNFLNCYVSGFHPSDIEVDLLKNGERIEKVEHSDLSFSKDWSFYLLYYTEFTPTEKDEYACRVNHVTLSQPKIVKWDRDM
In general, IC50 refers to the concentration needed to halve the response being measured. Molecule B1 returned an IC50 of 19.5 µg/mL.

Take B2: the IC50 stood at 11.8 µg/mL.

Take B3: the IC50 worked out at 32.8 µg/mL.

For B4, the IC50 turned out to be 8.58 µg/mL.
